Experiment [1] addresses T1, human CLL1 expressed on cancer cell lines HL60 and U937 (human, UniProt Q5QGZ9 1-265).
T1 sequence (looked up): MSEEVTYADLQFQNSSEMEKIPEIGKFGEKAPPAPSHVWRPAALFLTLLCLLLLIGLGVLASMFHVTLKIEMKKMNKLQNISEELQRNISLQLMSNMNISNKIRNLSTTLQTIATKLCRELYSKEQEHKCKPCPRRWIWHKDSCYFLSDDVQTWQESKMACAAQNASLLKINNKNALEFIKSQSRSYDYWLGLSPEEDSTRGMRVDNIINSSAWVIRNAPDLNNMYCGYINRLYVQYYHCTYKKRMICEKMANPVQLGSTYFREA
The experiment in a line: cell-based or functional assay.

The next experiment concerns the target T2, human CLL-1 Fc (human, UniProt Q5QGZ9 65-265, limits assumed).
T2 construct: Captured at 120 RU on an anti-Fc CM5 chip for Biacore; not shown: Fc part of the fusion (captured by an anti-Fc / anti-huFc antibody)
T2 sequence (looked up): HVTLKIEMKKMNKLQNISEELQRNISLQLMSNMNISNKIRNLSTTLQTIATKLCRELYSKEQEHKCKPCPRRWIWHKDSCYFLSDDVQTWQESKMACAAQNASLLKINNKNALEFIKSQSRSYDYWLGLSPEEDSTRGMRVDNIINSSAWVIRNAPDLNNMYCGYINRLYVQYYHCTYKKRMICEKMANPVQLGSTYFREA
Briefly: SPR (Biacore T200), human CLL-1 Fc captured on an anti-Fc CM5 chip, scFv as analyte, 1:1 binding fit. The procedure:
Next, the affinity for human CLL-1 of a representative number of anti-CLL-1 scFvs was tested by Biacore. Briefly, anti-Fc antibody (Jackson ImmunoReasearch, catalog #109-005-098) was immobilized to a CM5 sensor chip via amine coupling, and human CLL-1 Fc was then captured at a density of 120 RU. ScFv samples were serial diluted 3-fold and injected over the chip at a constant flow rate. Association and dissociation rates of the protein complex were monitored for 270 s and 400 s, respectively. Double referencing was performed against an anti-huFc coated flow cell and a buffer blank and the data was fit using a 1:1 Langmuir or steady state affinity model with the Biacore T200 evaluation software. Binding of clones CLL-1-6, CLL-1-8, CLL-1-9, CLL-1-10, and CLL1-13 to human CLL-1 was confirmed.

In a further experiment the target is T3, human CLL-1 (human, UniProt Q5QGZ9 65-265, limits assumed).
T3 construct: The construct is not described; also called C-type lectin-like molecule-1; MICL
T3 sequence (looked up): T2 sequence (looked up)
Briefly: ELISA and/or FACS of phage clones after panning on immobilized CLL-1.

B1: CD3 × CLL1_10 (bispecific antibody)
chain 1: QVQLVQSGGGVVQPGRSLRLSCKASGYTFTRYTMHWVRQAPGKGLEWIGYINPSRGYTNYNQKVKDRFTISRDNSKNTAFLQMDSLRPEDTGVYFCARYYDDHYSLDYWGQGTPVTVSSGGGGSGGGKSKKGGSGGGGSDIQMTQSPSSLSASVGDRVTITCSASSSVSYMNWYQQTPGKAPKRWIYDTSKLASGVPSRFSGSGSGTDYTFTISSLQPEDIATYYCQQWSSNPFTFGQGTKLQITGGGGSDKTHTCPPCPAPELLGGPSVFLFPPKPKDTLMISRTPEVTCVVVAVSHEDPEVKFNWYVDGVEVHNAKTKPREEQYNSTYRVVSVLTVLHQDWLNGKEYKCKVSNKALAAPIEKTISKAKGQPREPQVCTLPPSRDELTKNQVSLSCAVKGFYPSDIAVEWESNGQPENNYKTTPPVLDSDGSFFLVSKLTVDKSRWQQGNVFSCSVMHEALHNHYTQKSLSLSPGK
chain 2: QVQLVQSGGGLVQPGGSLRLSCAASGFTFSSYSMNWVRQAPGKGLEWVSYISSSSSTIYYADSVKGRFTISRDNAKNSLYLQMNSLRAEDTAVYYCARDLSVRAIDAFDIWGQGTMVTVSSGGGGSGGGGSGGGGSGGGGSDIVLTQSPSSLSASVGDRVTITCQASQDISNYLNWYQQKPGKAPKLLIYDASNLETGVPSRFSGSGSGTDFTFTISSLQPEDFATYYCQQAYSTPFTFGPGTKVEIKGGGGSGSDKTHTCPPCPAPELLGGPSVFLFPPKPKDTLMISRTPEVTCVVVAVSHEDPEVKFNWYVDGVEVHNAKTKPREEQYNSTYRVVSVLTVLHQDWLNGKEYKCKVSNKALAAPIEKTISKAKGQPREPQVYTLPPCRDELTKNQVSLWCLVKGFYPSDIAVEWESNGQPENNYKTTPPVLDSDGSFFLYSKLTVDKSRWQQGNVFSCSVMHEALHNHYTQKSLSLSPGK
Turning to B1, in experiment [1], the “EC50 (nM), Killing HL60 (T-cell mediated killing of the CLL1-positive cancer cell line)” value worked out at 0.27 nM and the “EC50 (nM), NFAT U937 (T-cell activation, Jurkat NFAT luciferase reporter assay)” value was determined as 0.85 nM.

B2: CD3 × CLL1_08 (bispecific antibody)
chain 1: B1 chain 1
chain 2: QVQLVESGGGLVQPGGSLRLSCAASGFTFSSYWMSWVRQAPGKGLEWVANINEDGSAKFYVDSVKGRFTISRDNAKNSLYLQMNSLRAEDTAVYFCARDLRSGRYWGQGTLVTVSSGGGGSGGGGSGGGGSEIVLTQSPGTLSLSPGGRATLSCRASQSISGSFLAWYQQKPGQAPRLLIYGASSRATGIPDRFSGSGSGTDFTLTISRLEPEDFAVYYCQQYGSSPPTFGLGTKLEIKGGGGSGSDKTHTCPPCPAPELLGGPSVFLFPPKPKDTLMISRTPEVTCVVVAVSHEDPEVKFNWYVDGVEVHNAKTKPREEQYNSTYRVVSVLTVLHQDWLNGKEYKCKVSNKALAAPIEKTISKAKGQPREPQVYTLPPCRDELTKNQVSLWCLVKGFYPSDIAVEWESNGQPENNYKTTPPVLDSDGSFFLYSKLTVDKSRWQQGNVFSCSVMHEALHNHYTQKSLSLSPGK
For B2, in experiment [1], the “EC50 (nM), Killing HL60 (T-cell mediated killing of the CLL1-positive cancer cell line)” value amounted to 0.31 nM and the “EC50 (nM), NFAT U937 (T-cell activation, Jurkat NFAT luciferase reporter assay)” value was found to be 1.26 nM.

B3: CLL-1-9 (scFv)
scFv: QVQLVQSGAEVKEPGASVKVSCKAPANTFSDHVMHWVRQAPGQRFEWMGYIHAANGGTHYSQKFQDRVTITRDTSANTVYMDLSSLRSEDTAVYYCARGGYNSDAFDIWGQGTMVTVSSGGGGSGGGGSGGGGSGGGGSDIVMTQSPSSVSASVGDRVTITCRASQDISSWLAWYQQKPGKAPKLLIYAASSLQSGVPSRFNGSGSGTDFTLTISSLQPEDFATYYCQQSYSTPLTFGGGTKVEIK
notes: Soluble scFv from HEK293F cells, purified on Ni-NTA; a tag is implied but not described; also called 146259
The Kd is the equilibrium constant for the complex coming apart. Read a high Kd as lower affinity. Broadly, the koff is a measure of how fast the partners let go of each other. A low value points to slow dissociation. Broadly, the kon is a measure of how fast the partners come together. B3: in the experiment with human CLL-1 Fc, binding was put at a Kd of 9.1 nM, the koff stood at 0.00128 s⁻¹ and the kon was 141000 M⁻¹ s⁻¹.

B4: CLL-1-1 (scFv)
scFv: EVQLQQSGAEVKKPGSSVKVSCKASGGTFSSYAISWVRQAPGQGLEWMGGIIPIFGTANYAQKFQGRVTITADESTSTAYMELSSLRSEDTAVYYCARDLEMATIMGGYWGQGTLVTVSSGGGGSGGGGSGGGGSQSALTQPASVSGSPGQSITISCTGTSSDVGGYNYVSWYQQHPGKAPKLMIYDVSNRPSGVSNRFSGSKSGNTASLTISGLQAEDEADYYCSSYTSSSTLDVVFGGGTKLTVL
notes: Human scFv from phage display (VH-linker-VL); For Biacore it was made as soluble scFv in HEK293F cells and purified on Ni-NTA beads; a tag is implied but not described; also called 139115
Consider B4, for which the binding result in the experiment with human CLL-1 is listed as “binds”.

B5: CLL-1-10 (scFv)
scFv: QVQLVQSGGGLVQPGGSLRLSCAASGFTFSSYSMNWVRQAPGKGLEWVSYISSSSSTIYYADSVKGRFTISRDNAKNSLYLQMNSLRAEDTAVYYCARDLSVRAIDAFDIWGQGTMVTVSSGGGGSGGGGSGGGGSGGGGSDIVLTQSPSSLSASVGDRVTITCQASQDISNYLNWYQQKPGKAPKLLIYDASNLETGVPSRFSGSGSGTDFTFTISSLQPEDFATYYCQQAYSTPFTFGPGTKVEIK
notes: Soluble scFv from HEK293F cells, purified on Ni-NTA; a tag is implied but not described; also called 146261
On to B5, for which, in the experiment with human CLL-1 Fc, the Kd came out at 15 nM, the koff was determined as 0.00214 s⁻¹ and the kon came to 142000 M⁻¹ s⁻¹.

B6: CLL-1-13 (scFv)
scFv: QVQLVQSGAEVKKSGASVKVSCKASGYPFTGYYIQWVRQAPGQGLEWMGWIDPNSGNTGYAQKFQGRVTMTRNTSISTAYMELSSLRSEDTAVYYCASDSYGYYYGMDVWGQGTLVTVSSGGGGSGGGGSGGGGSGGGGSDIQMTQSPSSLSASVGDRVTFTCRASQGISSALAWYQQKPGKPPKLLIYDASSLESGVPSRFSGSGSGTDFTLTISSLQPEDFATYYCQQFNNYPLTFGGGTKVEIK
notes: Soluble scFv from HEK293F cells, purified on Ni-NTA; a tag is implied but not described; also called 146264
In the experiment with human CLL-1 Fc, B6 showed a Kd of 46.1 nM, a koff of 0.00119 s⁻¹ and a kon of 25700 M⁻¹ s⁻¹.

B7: CLL-1-2 (scFv)
scFv: EVQLVESGGGVVQPGGSLRLSCAASGFTFDDYAMHWVRQAPGKGLEWVSLISGDGGSTYYADSVKGRFTISRDNSKNTLYLQMNSLRVEDTAVYYCARVFDSYYMDVWGKGTTVTVSSGGGGSGGGGSGSGGSEIVLTQSPLSLPVTPGQPASISCRSSQSLVYTDGNTYLNWFQQRPGQSPRRLIYKVSNRDSGVPDRFSGSGSDTDFTLKISRVEAEDVGIYYCMQGTHWSFTFGQGTRLEIK
notes: Human scFv from phage display; also called 139116
For the molecule B7, the binding result in the experiment with human CLL-1 is given as “binds”.

For the origin of these results see US20210198368A1 (Novartis, published 2021).
